Measurements taken from article PMC4535883, “A Single-Strand Annealing Protein Clamps DNA to Detect and Secure Homology”.

Assays:
[1] = molecular target: T1, Redβ (single-strand annealing protein) (bacteriophage lambda, UniProt P03698 1-261); assay: FCS/FCCS; effective KEpstein for 30-b ssDNA, calculated as Kd/21; Buffer composition not in the material; optical tweezers at 29.2 °C; conditions: protein: recombinant; tags: StrepII (stated for the purified protein used as western blot standard); label: Atto 655 (5')
T1 sequence: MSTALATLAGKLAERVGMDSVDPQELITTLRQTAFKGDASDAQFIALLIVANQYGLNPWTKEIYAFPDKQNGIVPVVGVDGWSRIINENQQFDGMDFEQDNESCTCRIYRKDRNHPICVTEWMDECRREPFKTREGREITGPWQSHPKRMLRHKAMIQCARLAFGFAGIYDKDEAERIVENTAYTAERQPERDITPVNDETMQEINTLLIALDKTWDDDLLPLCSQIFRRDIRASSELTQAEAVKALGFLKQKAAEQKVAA

[2] = molecular target: T1, Redβ (single-strand annealing protein); assay: FCCS; half of ssDNA bound; about 30% bound at 100 nM; Hill coefficient close to 1; Buffer composition not in the material; optical tweezers at 29.2 °C; conditions: protein: recombinant; tags: StrepII (stated for the purified protein used as western blot standard); label: Atto 655 (5')
[3] = molecular target: T1, Redβ (single-strand annealing protein); assay: FCS/FCCS; per single binding site of Redβ monomer; global fit of isodesmic growth model; Buffer composition not in the material; optical tweezers at 29.2 °C; conditions: protein: recombinant; tags: StrepII (stated for the purified protein used as western blot standard); label: Atto 655 (5')
[4] = molecular target: T1, Redβ (single-strand annealing protein); assay: CD; filament formed by Redβ annealing; CD shift at 210-220 nm; Buffer composition not in the material; optical tweezers at 29.2 °C; conditions: protein: recombinant; tags: StrepII (stated for the purified protein used as western blot standard); blunt; strands annealed by Redβ
[5] = molecular target: T1, Redβ (single-strand annealing protein); assay: optical tweezers; preassembled filament; unzipping forces >200 pN, step 10 ± 2 bp; Buffer composition not in the material; optical tweezers at 29.2 °C; conditions: protein: recombinant; tags: StrepII (stated for the purified protein used as western blot standard); 123 bp duplex, ssDNA spacers on both sides
[6] = molecular target: T1, Redβ (single-strand annealing protein); assay: optical tweezers; preassembled filament, 750 nM Redβ; >20% of traces >100 pN; Buffer composition not in the material; optical tweezers at 29.2 °C; conditions: protein: recombinant; tags: StrepII (stated for the purified protein used as western blot standard); 25 bp duplex, ssDNA spacers on both sides

With ATGCCTCTCACTCGTCATCTTGTTTAGTAT (ssDNA) [ssDNA FCS 30 b] the Kd [1] was about 0.24 µM, the “apparent K (half saturation)” value [2] was about 300 nM and the Kd [3] was 5 ± 0.2 µM.

B1: CD 44-mer pair ssDNACD(1)+(2) (dsDNA)
DNA 1: GTAGAGTATAAGCACAGAGAGGATAGAGAACAATGGAGCGGGTGT
DNA 2: ACACCCGCTCCATTGTTCTCTATCCTCTCTGTGCTTATACTCTAC
B1: binds [4].

B2: 123 bp high-force unzipping linker (dsDNA)
DNA 1: TGTTTAGTATGAGTCGAAATTCTTACGGCGTGTCAGAGAGGCAATGGCTTGACTTGTGGTGGATCACAGTTTGTGAGTAACGGCAAGATGCGGTAAACACTGTAATGCGAGCTTCATTGACTCGGCTTAAAGTTCCTGGT
DNA 2: TGACAGGAAACAGCACGCCAACCAGGAACTTTAAGCCGAGTCAATGAAGCTCGCATTACAGTGTTTACCGCATCTTGCCGTTACTCACAAACTGTGATCCACCACAAGTCAAGCCATTGCCTCTCTGACACGCCGTAAGAATTCGATAGGCAGCAGATTCTCTTTTCACCTTC
modifications: 5' phosphate on overhang A
B2: binds [5].

B3: 25 bp high-force unzipping linker (dsDNA)
DNA 1: TGTTTAGTATGAGTCGAAATTCTTACGGCGTGTCAGAGAGGC
DNA 2: TGACAGGAAACAGCACGCCAGCCTCTCTGACACGCCGTAAGAATTCGATAGGCAGCAGATTCTCTTTTCACCTTC
modifications: 5' phosphate on overhang A
B3: binds [6].
